In PMC4456287 (Structure (London, England : 1993), 2015):
Several values for one entry are separate records, joined by “and”; a condition that tells them apart may be missing. Identical values can stand only once.

Legend:
Experiment in all cases: ITC
[1] = target: Alanine mutations of MRG15 L168 and W172 (human)
[2] = target: human MRG15 MRG domain (residues 155-323) (human, UniProt Q9UBU8-2 155-323)
human MRG15 MRG L168A = human MRG15 MRG L168A (human, UniProt Q9UBU8-2 155-323, alanine mutation of L168)
Sequence of human MRG15 MRG L168A (Q9UBU8 194-362 L207A): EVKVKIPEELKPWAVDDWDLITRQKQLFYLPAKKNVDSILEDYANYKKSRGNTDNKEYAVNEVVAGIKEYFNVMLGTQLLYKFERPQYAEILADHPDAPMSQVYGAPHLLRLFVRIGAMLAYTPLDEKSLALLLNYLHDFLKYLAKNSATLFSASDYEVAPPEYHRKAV

human MRG15 MRG L287A = human MRG15 MRG L287A (human, UniProt Q9UBU8-2 155-323, alanine mutation of L287)
Sequence of human MRG15 MRG L287A (Q9UBU8 194-362 L326A): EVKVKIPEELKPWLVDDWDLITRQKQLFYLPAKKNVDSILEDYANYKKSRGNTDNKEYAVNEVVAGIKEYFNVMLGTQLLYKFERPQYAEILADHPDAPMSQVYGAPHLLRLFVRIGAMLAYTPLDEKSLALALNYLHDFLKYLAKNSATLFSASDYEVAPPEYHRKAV

human MRG15 MRG W172A = human MRG15 MRG W172A (human, UniProt Q9UBU8-2 155-323, alanine mutation of W172)
Sequence of human MRG15 MRG W172A (Q9UBU8 194-362 W211A): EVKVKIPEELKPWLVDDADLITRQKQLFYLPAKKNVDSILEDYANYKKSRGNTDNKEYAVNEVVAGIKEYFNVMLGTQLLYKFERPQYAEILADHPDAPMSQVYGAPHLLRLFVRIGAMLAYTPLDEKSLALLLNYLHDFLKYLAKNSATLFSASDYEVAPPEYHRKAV

Sequence of human MRG15 MRG domain (residues 155-323) (Q9UBU8 194-362): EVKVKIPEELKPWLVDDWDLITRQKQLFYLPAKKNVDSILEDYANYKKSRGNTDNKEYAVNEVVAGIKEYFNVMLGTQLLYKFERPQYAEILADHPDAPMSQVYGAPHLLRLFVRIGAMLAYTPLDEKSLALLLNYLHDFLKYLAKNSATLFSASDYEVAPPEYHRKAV

| Molecule | Kd [2] | fold decrease in binding affinity relative to wild-type [2] | also measured |
| --- | --- | --- | --- |
| human MRGBP MRG-binding domain (residues 69-119) (from UniProt Q9NV56 69-119) (domain or fragment) | – | – | fold reduction in binding affinity [1]: 7 fold and 8 fold |
| human PALB2 MBD (residues 579-629) (domain or fragment, UniProt Q86YC2 579-629, looked up) AYLSLDDDAFTAPFHRDGMLSLKQLLSFLSITDFQLPDEDFGPLKLEKVKS | ~0.02 µM | – | – |
| human MRGBP MRG-binding domain (residues 69-119) (domain or fragment, UniProt Q9NV56 69-119, looked up) GRQVPSKVIWDHLSTMYDMQALHESEILPFPNPERNFVLPEEIIQEVREGK | ~0.06 µM | – | binding result (human MRG15 MRG L168A): binds; fold effect on binding (human MRG15 MRG L287A): > 2 fold; binding result (human MRG15 MRG W172A): binds |
| human MRGBP MBD M84A (domain or fragment, UniProt Q9NV56 69-119, looked up) GRQVPSKVIWDHLSTAYDMQALHESEILPFPNPERNFVLPEEIIQEVREGK | – | ~3 fold | – |
| human MRGBP MBD I112A (domain or fragment, UniProt Q9NV56 69-119, looked up) GRQVPSKVIWDHLSTMYDMQALHESEILPFPNPERNFVLPEEIAQEVREGK | – | ~13 fold | – |
